# Reference: patent US7495068B2, “Antiangiogenic peptides, polypeptides encoding same and methods for inhibiting angiogenesis” (Abbott Laboratories, priority 1996, dated 2009)
# B1: kringle 5 (Val^443-Ala^543): kringle 5 peptide fragment, amino acid positions 443-543 of human plasminogen (SEQ ID NO:1) (protein, listed as Homo sapiens)
# chain: VAPPPVVLLPDVETPSEEDCMFGNGKGYRGKRATTVTGTPCQDWAAQEPHRHSIFTPETNPRAGLEKNYCRNPDGDVGGPWCYTTNPRKLYDYCDVPQCAA
# B2: kringle 2 (Glu^161-Thr^245): kringle 2 fragment of plasminogen, SEQ ID NO:1 (protein, listed as Homo sapiens)
# chain: ECEEECMHCSGENYDGKISKTMSGLECQAWDSQSPHAHGYIPSKFPNKNLKKNYCRNPDRELRPWCFTTDPNKRWELCDIPRCTT
# B3: kringle 4 (Val^354-Val^443): kringle 4 fragment of plasminogen, SEQ ID NO:1 (protein, listed as Homo sapiens)
# chain: VVQDCYHGDGQSYRGTSSTTTTGKKCQSWSSMTPHRHQKTPENYPNAGLTMNYCRNPDADKGPWCFTTDPSVRWEYCNLKKCSGTEASVV
# Tests used:
# BCE Cells [1] = assay: Endothelial proliferation assay (bFGF-stimulated); type: cell-based, bovine
# Protocol: The in vitro proliferation of endothelial cells was determined as described by Lingen, et al., in Laboratory Investigation, 74: 476-483 (1996), which is hereby incorporated herein by reference, using the Cell Titer 96 Aqueous Non-Radioactive Cell Proliferation Assay kit (Promega® Corporation, Madison, Wis.). Bovine capillary (adrenal) endothelial cells were plated at a density of 1000 cells per well in a 96-well plate in Dulbecco's Modified Eagle Medium (DMEM) containing 10% donor calf serum and 1% BSA (bovine serum albumin, GIBCO® BRL, Gaithersburg, Md.). After 8 hours, the cells were starved overnight in DMEM containing 0.1% BSA then re-fed with media containing specified concentrations of inhibitor and 5 ng/mL bFGF (basic fibroblast growth factor). The results of the assay were corrected both for unstimulated cells (i.e. no bFGF added) as the baseline and for cells stimulated with bFGF alone (i.e. no inhibitor added) as the maximal proliferation. When multiple experiments were combined, the results were represented as the percent change in cell number as compared to bFGF alone.
# The effect of kringle 5 peptide fragments on endothelial cell proliferation was determined in vitro using the above described endothelial cell proliferation assay. […]
# BCE Cells [2] = settings: rows marked *: data taken from Marti et al. 1994; cited from earlier work
Molecule,fold increase in activity at inhibiting BCE cell proliferation compared to kringle 1-4 peptide fragments (BCE Cells [1]; vs kringle 1-4 peptide fragments) [fold],fold increase in activity at inhibiting BCE cell proliferation compared to kringle 5 fragment 443-546 of SEQ ID NO:1 (BCE Cells [1]; vs kringle 5 (443-546)) [fold],Antiproliferative Activity of BCE Cells (ED50) (BCE Cells [2])
B1,~800,~300,–
B2,–,–,no activity
B3,–,–,no activity
